In US20250276015A1 (US Dept. of Health and Human Services, published 2025):

What was measured:
[1] = target: T1, purified recombinant HERV-K Env protein (human endogenous retrovirus-K (HERV-K)); assay: protein thermal shift assay (DSF); HERV-K Env with 1-3 nM G10
T1 chain: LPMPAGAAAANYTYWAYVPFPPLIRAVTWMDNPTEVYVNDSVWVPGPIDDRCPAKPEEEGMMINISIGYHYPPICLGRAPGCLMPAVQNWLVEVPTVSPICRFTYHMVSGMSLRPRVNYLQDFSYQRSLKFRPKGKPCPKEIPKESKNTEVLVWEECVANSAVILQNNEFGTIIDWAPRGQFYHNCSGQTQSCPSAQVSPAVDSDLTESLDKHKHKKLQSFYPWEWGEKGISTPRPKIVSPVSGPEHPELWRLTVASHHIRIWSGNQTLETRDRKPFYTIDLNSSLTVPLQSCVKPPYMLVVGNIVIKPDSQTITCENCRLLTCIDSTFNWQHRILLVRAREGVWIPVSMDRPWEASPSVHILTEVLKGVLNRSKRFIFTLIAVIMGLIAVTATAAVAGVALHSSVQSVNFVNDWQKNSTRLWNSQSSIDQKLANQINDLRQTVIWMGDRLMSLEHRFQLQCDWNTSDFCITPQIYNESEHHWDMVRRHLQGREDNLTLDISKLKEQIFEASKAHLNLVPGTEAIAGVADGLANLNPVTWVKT

[2] = target: HERV-K Env-green fluorescent protein (GFP) fusion protein in transfected HEK293T cells (human endogenous retrovirus-K (HERV-K)); assay: flow cytometry on fixed HEK293T cells transfected with Env-GFP; G10, anti-Myc antibody, Alexa Fluor 647 secondary antibody

B1: HERV-K Env nanobody G10 (VHH)
VHH: EVQLQASGGGFVQPGGSLRLSCAASGSTWYLDAMGWFRQAPGKEREFVSAISDLDDTARYYADSVKGRFTISRDNSKNTVYLQMNSLRAEDTATYYCAYLGATMAETYWGQGTQVTVSS
notes: Recombinant protein made in E. coli; From Hybrigenics antibody phage display; also called nanobody clone G10; G10 nanobody
With B1 as the binder, how does the “shift in Tm” value [1] read?
The value was ~2.5 ° C.

What about the % of cells in the DP quadrant (GFP and Alexa Fluor 647) [2] of the same binder?
The % of cells in the DP quadrant (GFP and Alexa Fluor 647) was 39.4%.
